Test results from patent US20090118167A1, “Selective Vpac2 Receptor Peptide Agonists” (Eli Lilly and Company Patent Division, priority 2004, published 2009).
Marks after values point to notes of the source that are not given here. Square brackets hold non-standard residues; d marks the D form. Ends that are not written are not given here. Nle = CCCC[C@H](N)C(=O)O; Orn = NCCC[C@H](N)C(=O)O; Aib = CC(C)(N)C(=O)O

T1: human PAC1 (Homo sapiens, UniProt P41586)
T1 construct: expressed in transfected cells; membranes)
T1 sequence (P41586 21-468): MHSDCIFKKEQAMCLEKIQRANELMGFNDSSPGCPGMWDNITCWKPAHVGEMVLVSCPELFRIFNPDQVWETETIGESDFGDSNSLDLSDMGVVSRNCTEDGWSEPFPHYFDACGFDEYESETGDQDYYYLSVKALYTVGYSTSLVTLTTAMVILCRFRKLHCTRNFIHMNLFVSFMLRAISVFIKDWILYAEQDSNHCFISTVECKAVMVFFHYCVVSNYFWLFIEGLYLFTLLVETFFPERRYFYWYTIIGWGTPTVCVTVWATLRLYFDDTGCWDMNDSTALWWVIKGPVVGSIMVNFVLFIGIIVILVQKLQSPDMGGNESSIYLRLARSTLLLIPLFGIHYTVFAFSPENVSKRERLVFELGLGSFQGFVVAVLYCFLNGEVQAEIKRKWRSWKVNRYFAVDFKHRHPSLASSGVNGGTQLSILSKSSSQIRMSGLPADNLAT

T2: human VPAC1 (Homo sapiens, UniProt P32241)
T2 construct: expressed in transfected cells
T2 sequence (P32241 31-457): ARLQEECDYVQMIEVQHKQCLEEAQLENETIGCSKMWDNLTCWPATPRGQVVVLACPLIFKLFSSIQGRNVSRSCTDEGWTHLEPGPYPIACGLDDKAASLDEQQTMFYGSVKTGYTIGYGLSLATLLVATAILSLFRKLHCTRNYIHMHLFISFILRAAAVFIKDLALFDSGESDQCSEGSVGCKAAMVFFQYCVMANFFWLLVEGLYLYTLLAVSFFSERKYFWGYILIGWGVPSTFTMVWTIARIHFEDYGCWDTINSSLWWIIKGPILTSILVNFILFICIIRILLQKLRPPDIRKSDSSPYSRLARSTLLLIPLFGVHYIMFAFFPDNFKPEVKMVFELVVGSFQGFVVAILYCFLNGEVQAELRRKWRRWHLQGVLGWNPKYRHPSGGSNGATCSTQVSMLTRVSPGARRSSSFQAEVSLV

T3: human VPAC2 receptor (human, UniProt P41587 24-438)
T3 sequence (looked up): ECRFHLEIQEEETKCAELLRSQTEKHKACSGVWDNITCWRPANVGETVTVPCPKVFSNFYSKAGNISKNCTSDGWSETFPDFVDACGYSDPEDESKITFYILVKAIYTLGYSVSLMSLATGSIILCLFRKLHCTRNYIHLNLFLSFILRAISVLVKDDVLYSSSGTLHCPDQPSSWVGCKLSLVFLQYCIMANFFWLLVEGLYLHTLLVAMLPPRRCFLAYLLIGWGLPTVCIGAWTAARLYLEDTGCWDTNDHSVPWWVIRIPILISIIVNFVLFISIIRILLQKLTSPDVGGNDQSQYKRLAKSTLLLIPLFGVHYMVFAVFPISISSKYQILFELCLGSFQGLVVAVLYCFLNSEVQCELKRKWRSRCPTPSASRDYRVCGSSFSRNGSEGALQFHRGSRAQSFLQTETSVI


Experiments:
human PAC1 = target: T1, human PAC1; test: Filter binding assay, 125I-labeled PACAP-27 tracer; settings: membranes from cells transiently transfected with human PAC1; read-out: Human receptor binding IC50 PAC1
Method: (§1) In order to prepare the filter plates, the presoak solution is aspirated by vacuum filtration. The plates are flushed twice with 200 μL flush buffer. 200 μL blocking buffer is added to the filter plate. The filter plate is then incubated with 200 μL presoak solution for 1 hour at room temperature.
(§2) The assay plate is filled with 25 μL assay buffer, 25 μL membranes (2.5 μg) suspended in assay buffer, 25 μL compound (agonist) in assay buffer, and 25 μL tracer (about 40000 cpm) in assay buffer. The filled plate is incubated for 1 hour with shaking.
(§3) The transfer from assay plate to filter plate is conducted. The blocking buffer is aspirated by vacuum filtration and washed two times with flush buffer. 90 μL is transferred from the assay plate to the filter plate. The 90 μL transferred from assay plate is aspirated and washed three times with 200 μL flush buffer. The plastic support is removed. It is dried for 1 hour at 60° C. 30 μL Microscint is added. The count is performed.
(§4) Values reported are single results or the mean of two or more independent runs.

human VPAC1 = target: T2, human VPAC1; test: Filter binding assay, 125I-labeled VIP tracer; settings: membranes from cells transiently transfected with human VPAC1; read-out: Human receptor binding IC50 VPAC1
Method: as §1, §2, §3, §4

[1] = rat, in vivo, sc, 0.1 mg/kg
Method: Healthy Fisher 344 rats (3 animals per group) are injected with 100 μg compound/kg (compound amount based on peptide content and dissolved in PBS buffer). […] PK parameters are then calculated using a model-independent method (WinNonlin Pro, Pharsight Corp., Mountain View, Calif., USA).

Normal Wistar rats = test: Intravenous glucose tolerance test (IVGTT); assay type: in vivo, rat
Method: Intravenous glucose tolerance test (IVGTT): Normal Wistar rats are fasted overnight and are anesthetized prior to the experiment. A blood sampling catheter is inserted into the rats. The compound is given in the jugular vein. Blood samples are taken from the carotid artery. A blood sample is drawn immediately prior to the injection of glucose along with the compound. After the initial blood sample, glucose mixed with compound is injected intravenously (i.v.). Compound may also be injected intravenously or subcutaneously prior to the glucose challenge. A glucose challenge of 0.5 g/kg body weight is given, injecting a total of 1.5 mL vehicle with glucose and agonist per kg body weight. The peptide concentrations are varied to produce the desired dose in μg/kg. Blood samples are drawn at 2, 4, 6 and 10 minutes after giving glucose. The control group of animals receives the same vehicle along with glucose, but with no compound added. In some instances, a 30 minute post-glucose blood sample is drawn. Aprotinin is added to the blood sample (250-500 kIU/ml blood). The serum is then analyzed for glucose and insulin using standard methodologies.
The assay uses a formulated and calibrated peptide stock in PBS. Normally, this stock is a prediluted 100 μM stock. However, a more concentrated stock with approximately 1 mg agonist per mL is used. The specific concentration is always known. Variability in the maximal response is mostly due to variability in the vehicle dose.

human VPAC2 receptor [2] = target: T3, human VPAC2 receptor; test: cell-based or functional assay
human VPAC2 receptor [3] = target: T3, human VPAC2 receptor; test: filter binding assay, human VPAC2 membranes, displacement of 125I-VIP
Method: as §2, §3

| Molecule | IC50 (human PAC1) [nM] | IC50 (human VPAC1) [nM] | EC50 for cAMP generation, Alpha screen (human VPAC2 receptor [2]) [nM] | other results |
| --- | --- | --- | --- | --- |
| P376: cyclic PEGylated VPAC2 receptor peptide agonist (HSDAVFTENYT[Orn]LR[Aib]Q[Nle]AA[Orn]KYLNDL[Orn][Orn]GGPSSGAPPPC; also: cyclic, bridge type and places not given here, PEGylated, site not placed) [Agonist P376] | > 25000 | > 3000 |  |  |
| P255: cyclic PEGylated VPAC2 receptor peptide agonist (HSDAVFTENYTKL[Aib]KQ[Nle]AAKKYLNDLKQGGPSSGAPPPC; not fully specified (residue 39); ends and bridges not checked; also: cyclic, bridge type and places not given here, PEGylated, site not placed) [Agonist P255] | > 25000 | > 3000 |  | AUC0-last [1]: 5797 ng·h/mL; Cl/F [1]: 0.283 mL/min/kg; Vd/F [1]: 0.389 L/kg |
| P201: cyclic PEGylated VPAC2 receptor peptide agonist; P200 reacted with methoxy-PEG2-MAL-40K (HSDAVFTENYTKLRKQ[Nle]AAKKYLNDLKKGGPSSGAPPPC(methoxy‑PEG2‑MAL‑40K); ends and bridges not checked; also: cyclic, bridge kind and places not given here) [Agonist P201] |  | > 3000 |  | AUC0-last [1]: 8101 ng·h/mL; Cl/F [1]: 0.2 mL/min/kg; Vd/F [1]: 0.214 L/kg; % increase AUC (insulin, 0-10 min after glucose) (Normal Wistar rats; Dose 10 μg/kg iv, 0 h between glucose & compound): +146%; % increase AUC (insulin, 0-10 min after glucose) (Normal Wistar rats; Dose 10 μg/kg iv, 4 h between glucose & compound): +104%; % increase AUC (insulin, 0-10 min after glucose) (Normal Wistar rats; Dose 30 μg/kg iv, 4 h between glucose & compound): +191%; % increase AUC (insulin, 0-10 min after glucose) (Normal Wistar rats; Dose 100 μg/kg iv, 4 h between glucose & compound): +183%; % increase AUC (insulin, 0-10 min after glucose) (Normal Wistar rats; Dose 300 μg/kg, given subcutaneously, 24 h between glucose & compound): +209%; % increase AUC (insulin, 0-10 min after glucose) (Normal Wistar rats; Dose was 90 μg/kg (column 100 μg/kg), given subcutaneously, 24 h between glucose & compound): +89** % |
| P239: cyclic PEGylated VPAC2 receptor peptide agonist (HSDAVFTENYTKLRKQ[Nle]AAKKYLNDLKQGGPSSGAPPPC; not fully specified (residue 39); ends and bridges not checked; also: cyclic, bridge type and places not given here, PEGylated, site not placed) [Agonist P239] | > 25000 | > 3000 |  |  |
| P274: cyclic PEGylated VPAC2 receptor peptide agonist (HSDAVFTENYTKL[Aib]KQ[Nle]AAKKYLNDLKQKGGPSSGAPPPC; not fully specified (residue 40); ends and bridges not checked; also: cyclic, bridge type and places not given here, PEGylated, site not placed) [Agonist P274] | > 25000 | > 3000 |  |  |
| P463: cyclic PEGylated VPAC2 receptor peptide agonist (HSDAVFTENYT[Orn]LR[Aib]Q[Nle]AA[Orn]KYLNDL[Orn][Orn]GGPSSGAPPPC; also: cyclic, bridge type and places not given here, PEGylated, site not given here) [Agonist P463] | > 25000 | > 3000 |  |  |
| P348: cyclic PEGylated VPAC2 receptor peptide agonist (HSDAVFTENYTKLR[Aib]Q[Nle]AAKKYLNDLK[Aib]KGGPSSGAPPPC; not fully specified (residue 40); ends and bridges not checked; also: cyclic, bridge type and places not given here, PEGylated, site not placed) [Agonist P348] | > 25000 | > 1500 |  | AUC0-last [1]: 1007 ng·h/mL; Cl/F [1]: 1.5 mL/min/kg; Vd/F [1]: 2.224 L/kg |
| P279: cyclic PEGylated VPAC2 receptor peptide agonist (HSDAVFTENYTKLR[Aib]Q[Nle]AAKKYLNDLKKGGPSSGAPPPC; not fully specified (residue 39); ends and bridges not checked; also: cyclic, bridge type and places not given here, PEGylated, site not placed) [Agonist P279] | > 25000 | > 3000 |  |  |
| P277: cyclic PEGylated VPAC2 receptor peptide agonist (HSDAVFTENYTKLRKQ[Nle]AAKKYLNDLKQGGPSSGAPPPC; ends and bridges not checked; also: cyclic, bridge type and places not given here, PEGylated, site not placed) [Agonist P277] | > 25000 | > 3000 |  |  |
| HSDAVFTENYTKLR[Aib]Q[Nle]AAKKYLNDLKKGGPSSGAPPPC (also: further groups not given here) [P279 (cyclic PEGylated VPAC2 receptor peptide agonist)] |  |  | 5.93 | IC50 (human VPAC2 receptor [3]): 7.2 nM |
| HSDAVFTENYTKL[Aib]KQ[Nle]AAKKYLNDLKQKGGPSSGAPPPC (also: further groups not given here) [P274 (cyclic PEGylated VPAC2 receptor peptide agonist)] |  |  | 76.1 | IC50 (human VPAC2 receptor [3]): 126 nM |
| HSDAVFTENYTKLRKQ[Nle]AAKKYLNDLKQGGPSSGAPPPC (also: further groups not given here) [P277 (cyclic PEGylated VPAC2 receptor peptide agonist)] |  |  | 470 | IC50 (human VPAC2 receptor [3]): 90.9 nM |
| HSDAVFTENYTKLRKQ[Nle]AAKKYLNDLKQKGGPSSGAPPPC (ends and bridges not checked; also: cyclic bridge (lactam or disulfide), places not given here, PEGylated, site not given here) [P268 (cyclic PEGylated VPAC2 receptor peptide agonist)] |  |  | 8.82 |  |
